In patent US20240117054A1 (DRAGONFLY THERAPEUTICS, published 2024):
Each block holds one binder with its values, some of them ahead of it.

Tests used:
hFLT3-His fusion protein = molecular target: T1, hFLT3-His fusion protein (human, UniProt P36888 27-541, limits assumed); assay: SPR, purified murine subclone, hFLT3-His, 1:1 binding fit
T1 construct: Soluble recombinant antigen used for immunisation, ELISA, SPR and BLI binning; also called recombinant hFLT3 protein; not shown: His tag
T1 sequence (looked up): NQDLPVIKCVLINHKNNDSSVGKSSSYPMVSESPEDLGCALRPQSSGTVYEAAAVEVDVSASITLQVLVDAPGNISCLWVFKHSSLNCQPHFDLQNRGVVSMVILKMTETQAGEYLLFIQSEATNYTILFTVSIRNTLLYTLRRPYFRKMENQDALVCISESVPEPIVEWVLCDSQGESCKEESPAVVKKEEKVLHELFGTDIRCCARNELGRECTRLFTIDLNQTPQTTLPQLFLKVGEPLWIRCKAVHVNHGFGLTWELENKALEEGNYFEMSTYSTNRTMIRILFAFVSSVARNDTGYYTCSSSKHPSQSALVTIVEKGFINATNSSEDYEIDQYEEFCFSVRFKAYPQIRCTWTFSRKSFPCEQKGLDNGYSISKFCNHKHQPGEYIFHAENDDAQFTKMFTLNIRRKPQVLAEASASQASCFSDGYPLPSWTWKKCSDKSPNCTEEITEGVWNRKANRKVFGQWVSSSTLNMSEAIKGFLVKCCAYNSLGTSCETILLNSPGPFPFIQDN

human NKG2D = molecular target: T2, human NKG2D (human, UniProt P26718 78-216, limits assumed); assay: assay not described
T2 sequence (looked up): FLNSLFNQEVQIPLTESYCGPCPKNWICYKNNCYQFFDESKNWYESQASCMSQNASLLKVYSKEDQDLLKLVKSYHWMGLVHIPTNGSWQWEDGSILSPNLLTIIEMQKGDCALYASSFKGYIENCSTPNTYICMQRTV

- binding result (hFLT3-His fusion protein): binds
B1: 14H8.E7 (antibody, V domains shown)
VH: EVQLQESGAELVKPGASVKLSCKASGYTFTNYWINWLKQRPGQGLEWIGNIYPGSTIINYNEKFKNKATLTVDTSSSTAYMQLSSLTSDDSAVYYCARRVVYLYFDSWGQGTTLTVSS
VL: QIVLTQSPAIMSASPGEKVTMTCSASSSVSYMHWYQQKSGTSPKRWIFDTSKLASGVPVRFSGSGSGTSYSLTITNMETEDAATYYCQQWSSKSPTFGGGTKLEIK

- binding result (human NKG2D): no binding
B2: F3′-1158 dead-2D (bispecific antibody, human IgG1, kappa)
chain: DIVMTQSPDSLAVSLGERATINCRASESVDTYGSSFVHWYQQKPGQPPKLLIYLASNLESGVPDRFSGSGSGTDFTLTISSLQAEDVAVYYCQQNNEEPWTFGCGTKVEIKGGGGSGGGGSGGGGSGGGGSQVQLVQSGAEVKKPGASVKVSCKASGYTFTRYVMHWVRQAPGQCLEWMGFINPYNDDTKYNEKFKGRVTITRDTSASTAYMELSSLRSEDTAVYYCARWRQLGSLDSWGQGTTVTVSSGSDKTHTCPPCPAPELLGGPSVFLFPPKPKDTLMISRTPEVTCVVVDVSHEDPEVKFNWYVDGVEVHNAKTKPREEQYNSTYRVVSVLTVLHQDWLNGKEYKCKVSNKALPAPIEKTISKAKGQPREPRVYTLPPCRDELTKNQVSLTCLVKGFYPSDIAVEWESNGQPENNYKTTPPVLVSDGSFTLYSKLTVDKSRWQQGNVFSCSVMHEALHNHYTQKSLSLSPG
heavy: EVQLVESGGGLVKPGGSLRLSCAASGFTFSSYSMNWVRQAPGKGLEWVSSISSSSSYIYYADSVKGRFTISRDNAKNSLYLQMNSLRAEDTAVYYCARGAPIGAAAGWFDPWGQGTLVTVSSASTKGPSVFPLAPSSKSTSGGTAALGCLVKDYFPEPVTVSWNSGALTSGVHTFPAVLQSSGLYSLSSVVTVPSSSLGTQTYICNVNHKPSNTKVDKKVEPKSCDKTHTCPPCPAPELLGGPSVFLFPPKPKDTLMISRTPEVTCVVVDVSHEDPEVKFNWYVDGVEVHNAKTKPREEQYNSTYRVVSVLTVLHQDWLNGKEYKCKVSNKALPAPIEKTISKAKGQPREPQVCTLPPSRDELTENQVSLTCLVKGFYPSDIAVEWESNGQPENNYKTTPPVLDSDGSFFLYSWLTVDKSRWQQGNVFSCSVMHEALHNHYTQKSLSLSPG
light: DIQMTQSPSTLSASVGDRVTITCRASNSISSWLAWYQQKPGKAPKLLIYEASSTKSGVPSRFSGSGSGTEFTLTISSLQPDDFATYYCQQYDDLPTFGGGTKVEIKRTVAAPSVFIFPPSDEQLKSGTASVVCLLNNFYPREAKVQWKVDNALQSGNSQESVTEQDSKDSTYSLSSTLTLSKADYEKHKVYACEVTHQGLSSPVTKSFNRGEC
notes: also called first variant
